Article PMC11332825, “Residues in the fructose-binding pocket are required for ketohexokinase-A activity” (The Journal of Biological Chemistry, 2024)
Where a chain is given by its changes, count along the chain named. Numbers in names are those of the source.

Target: the molecule itself
Assay: mass photometry; 100 nM protein diluted in PBS (pH 7.4), room temperature, 60 s acquisition, TwoMP mass photometer; monomer to dimer

B1: human ketohexokinase-A (KHK-A), wild type (enzyme)
chain: QILCVGLVVLDVISLVDKYPKEDSEIRCLSQRWQRGGNASNSCTVLSLLGAPCAFMGSMAPGHVADFVLDDLRRYSVDLRYTVFQTTGSVPIATVIINEASGSRTILYYDRSLPDVSATDFEKVDLTQFKWIHIEGRNASEQVKMLQRIDAHNTRQPPEQKIRVSVEVEKPREELFQLFGYGDVVFVSKDVAKHLGFQSAEEALRGLYGRVRKGAVLVCAWAEEGADALGPDGKLLHSDAFPPPRVVDTLGAGDTFNASVIFSLSQGRSVQEALRFGCQVAGKKCGLQGFDGIV
notes: ketohexokinase, splice isozyme A (KHK-A), human; good electron density for residues 3 to 298; theoretical molecular weight of the monomer printed as 34.65 kDa; Cloned into pET-28b(+) by GenScript; also called WT KHK-A; WT; source: E. coli BL21-CodonPlus-RIL, purified (Ni-NTA, Superdex 200 gel filtration)
- stoichiometry N: 2

B2: human ketohexokinase-A N45A (enzyme)
chain: B1 chain with N41A
notes: ketohexokinase, splice isozyme A (KHK-A), human, with N45A; Expressed and purified as described for WT KHK-A; PDB 2HLZ is the wild-type parent; source: E. coli BL21-CodonPlus-RIL, purified (Ni-NTA, Superdex 200 gel filtration)
- stoichiometry N: 2

B3: human ketohexokinase-A K174A (enzyme)
chain: B1 chain with K170A
notes: ketohexokinase, splice isozyme A (KHK-A), human, with K174A; Expressed and purified as described for WT KHK-A; PDB 2HLZ is the wild-type parent; source: E. coli BL21-CodonPlus-RIL, purified (Ni-NTA, Superdex 200 gel filtration)
- stoichiometry N: 2

B4: human ketohexokinase-A D15A (enzyme)
chain: B1 chain with D11A
notes: ketohexokinase, splice isozyme A (KHK-A), human, with D15A; Expressed and purified as described for WT KHK-A; PDB 2HLZ is the wild-type parent; also called KHK-A D15A; source: E. coli BL21-CodonPlus-RIL, purified (Ni-NTA, Superdex 200 gel filtration)
- stoichiometry N: 2

B5: human ketohexokinase-A N42K (enzyme)
chain: B1 chain with N38K
notes: ketohexokinase, splice isozyme A (KHK-A), human, with N42K; Expressed and purified as described for WT KHK-A; PDB 2HLZ is the wild-type parent; source: E. coli BL21-CodonPlus-RIL, purified (Ni-NTA, Superdex 200 gel filtration)
- stoichiometry N: 2

B6: human ketohexokinase-A N42A (enzyme)
chain: B1 chain with N38A
notes: ketohexokinase, splice isozyme A (KHK-A), human, with N42A; Expressed and purified as described for WT KHK-A; PDB 2HLZ is the wild-type parent; also called KHK-A N42A; source: E. coli BL21-CodonPlus-RIL, purified (Ni-NTA, Superdex 200 gel filtration)
- stoichiometry N: 2

B7: human ketohexokinase-A R141E (enzyme)
chain: B1 chain with R137E
notes: ketohexokinase, splice isozyme A (KHK-A), human, with R141E; Results and legends print R141E; the abstract and the discussion speak of R141A / alanine at R141; PDB 2HLZ is the wild-type parent; source: E. coli BL21-CodonPlus-RIL, purified (Ni-NTA, Superdex 200 gel filtration)
- stoichiometry N: 2

B8: human ketohexokinase-A R141E/K174A double mutant (enzyme)
chain: B1 chain with R137E, K170A
notes: ketohexokinase, splice isozyme A (KHK-A), human, with R141E and K174A; Expressed and purified as described for WT KHK-A; PDB 2HLZ is the wild-type parent; source: E. coli BL21-CodonPlus-RIL, purified (Ni-NTA, Superdex 200 gel filtration)
- stoichiometry N: 2
